Experimental findings from patent publication US20250296912A1, “AFFINITY ILLUDOFULVENE CONJUGATES” (Illudent, Inc., published 2025) are described below.

The star is where a group is joined. 3‑aminopropyl acylfulvene = analog 211, C-terminal Leu bound as amide to it; Mu = 4-morpholine-carbonyl, O=C(N1CCOCC1)*

The assay concerns the target prostate specific antigen (Homo sapiens). Kind of assay: cell-based or functional assay.

B1: Analog 221 (Mu-His-Ser-Ser-Lys-Leu-Gln coupled to analog 207, 211-leucine) (peptide)
peptide: Mu-HSSKLQL-{3‑aminopropyl acylfulvene}
On to B1, for which the “IC50 (48 hour exposure), Prostate DuPro (trace PSA)” value amounted to 13 µM and the “IC50 (48 hour exposure), Prostate LnCAP (positive PSA)” value came to 0.8 µM.
